According to US20260184782A1 (TWIST BIOSCIENCE, published 2026):
Positions count from the first letter of the chain named.

T1: TIGIT (UniProt Q495A1 22-141, limits assumed)
T1 construct: also called T cell immunoreceptor with Ig and ITIM domains; hTIGIT
T1 sequence (looked up): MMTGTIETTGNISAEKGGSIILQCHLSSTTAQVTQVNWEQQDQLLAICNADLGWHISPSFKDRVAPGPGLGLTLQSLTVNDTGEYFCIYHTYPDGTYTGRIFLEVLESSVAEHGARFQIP

T2: recombinant human TIGIT (human, UniProt Q495A1 22-141, limits assumed)
T2 construct: also called T cell immunoreceptor with Ig and ITIM domains
T2 sequence (looked up): T1 sequence (looked up)

T3: human TIGIT-Fc (human, UniProt Q495A1 22-141, limits assumed)
T3 construct: not shown: Fc; not described
T3 sequence (looked up): T1 sequence (looked up)

B1: TIGIT-211-35 (antibody, V domains shown)
VH: EVQLLESGGGLVQPGGSLRLSCAASGFTFNAYPMTWVRQAPGKGLEWVSAITGSGGSTYYADSVKGRFTISRDNSKNTLYLQMNSLRAEDTAVYYCARDGSYSSSWYGYWGQGTLVTVSS
VL: DIQMTQSPSSLSASVGDRVTITCSGNKLGDKYASWYQQKPGKAPKLLIYRTSWLQSGVPSRFSGSGSGTDFTLTISSLQPEDFATYYCVARAVRGNPHVLFGQGTKVEIK
B2: TIGIT-211-18 (antibody, V domains shown)
VH: EVQLLESGGGLVQPGGSLRLSCAASGFTFGTIPMSWVRQAPGKGLEWVGVIWGGGGTYYADSVKGRFTISRDNSKNTLYLQMNSLRAEDTAVYYCAKAHGNPVSDLSFDYWGQGTLVTVSS
VL: DIQMTQSPSSLSASVGDRVTITCSGDKLGDKYTSWYQQKPGKAPKLLIYHTSRLQDGVPSRFSGSGSGTDFTLTISSLQPEDFATYYCQQSYNLPLTFGQGTKVEIK
B3: TIGIT-211-43 (antibody, V domains shown)
VH: EVQLLESGGGLVQPGGSLRLSCAASGFTFYDYTMDWVRQAPGKGLEWVSAISGSGGGTSYADSVKGRFTISRDNSKNTLYLQMNSLRAEDTAVYYCARRHWPGGFDYWGQGTLVTVSS
VL: DIQMTQSPSSLSASVGDRVTITCRASQSIRRYLNWYQQKPGKAPKLLIYWASDRESGVPSRFSGSGSGTDFTLTISSLQPEDFATYYCQQSFSTPLTFGQGTKVEIK
B4: TIGIT-211-69 (antibody, V domains shown)
VH: EVQLLESGGGLVQPGGSLRLSCAASGFTFGNYRMTWVRQAPGKGLEWVGVIWGGGGTYYADSVKGRFTISRDNSKNTLYLQMNSLRAEDTAVYYCARIFSYALDYWGQGTLVTVSS
VL: B3 VL with S28N, R31S, W50G, D53T, R54L, E55Q, F92Y, S93E, T94N
B5: TIGIT-211-28 (antibody, V domains shown)
VH: EVQLLESGGGLVQPGGSLRLSCAASGFTFSTYAMSWVRQAPGKGLEWVSEISPSGGYTYYADSVKGRFTISRDNSKNTLYLQMNSLRAEDTAVYYCAKVKLGGGPNFDYWGQGTLVTVSS
VL: DIQMTQSPSSLSASVGDRVTITCQGASLRNYYASWYQQKPGKAPKLLIYDTSKVASGVPSRFSGSGSGTDFTLTISSLQPEDFATYYCFQGSHIPYTFGQGTKVEIK
B6: TIGIT-211-57 (antibody, V domains shown)
VH: EVQLLESGGGLVQPGGSLRLSCAASGLTFPNYGMGWVRQAPGKGLEWVSAISREGRATYYADSVKGRFTISRDNSKNTLYLQMNSLRAEDTAVYYCARVIAAAGAFDYWGQGTLVTVSS
VL: DIQMTQSPSSLSASVGDRVTITCRSSQSLVHSTGNTYLHWYQQKPGKAPKLLIYGKNIRPSGVPSRFSGSGSGTDFTLTISSLQPEDFATYYCQQSYTTPWTFGQGTKVEIK
B7: TIGIT-211-40 (antibody, V domains shown)
VH: EVQLLESGGGLVQPGGSLRLSCAASGFTFSRYAMNWVRQAPGKGLEWVSEISPSGKKKYYADSVKGRFTISRDNSKNTLYLQMNSLRAEDTAVYYCAKSSFDKYNFDYWGQGTLVTVSS
VL: DIQMTQSPSSLSASVGDRVTITCRASQDIGNFLNWYQQKPGKAPKLLIYRTSWLQSGVPSRFSGSGSGTDFTLTISSLQPEDFATYYCQQRSSYPPTFGQGTKVEIK
B8: TIGIT-211-17 (antibody, V domains shown)
VH: EVQLLESGGGLVQPGGSLRLSCAASGFTFAEYSMNWVRQAPGKGLEWVSWISPHGALTYYADSVKGRFTISRDNSKNTLYLQMNSLRAEDTAVYYCARSYGGGFDYWGQGTLVTVSS
VL: DIQMTQSPSSLSASVGDRVTITCRASQTIERRLNWYQQKPGKAPKLLIYQNDKRPSGVPSRFSGSGSGTDFTLTISSLQPEDFATYYCQQSYSIPPTFGQGTKVEIK
B9: TIGIT-211-45 (antibody, V domains shown)
VH: EVQLLESGGGLVQPGGSLRLSCAASGFTFRRYVMGWVRQAPGKGLEWVSEISPSGGYTYYADSVKGRFTISRDNSKNTLYLQMNSLRAEDTAVYYCAKRWTFNTAFDYWGQGTLVTVSS
VL: B3 VL with W50D, D53N, R54L, E55Q, F92Y, S93D, T94F, L96R
B10: TIGIT-211-30 (antibody, V domains shown)
VH: EVQLLESGGGLVQPGGSLRLSCAASGFTFKSYGMHWVRQAPGKGLEWVSAISGSGGGTSYADSVKGRFTISRDNSKNTLYLQMNSLRAEDTAVYYCARAGQWLGDFDYWGQGTLVTVSS
VL: DIQMTQSPSSLSASVGDRVTITCRASQPIGPDLLWYQQKPGKAPKLLIYRKSNRPSGVPSRFSGSGSGTDFTLTISSLQPEDFATYYCQQSYSTPYTFGQGTKVEIK
B11: TIGIT-211-51 (antibody, V domains shown)
VH: EVQLLESGGGLVQPGGSLRLSCAASGFTFHKYGMAWVRQAPGKGLEWVSTISSGGGYTYYPDSVKGRFTISRDNSKNTLYLQMNSLRAEDTAVYYCARDTYLHFDYWGQGTLVTVSS
VL: B10 VL with P28G, I29V, G30R, P31T, D32S, L34A, R50A, S52N, T94A
B12: TIGIT-211-42 (antibody, V domains shown)
VH: EVQLLESGGGLVQPGGSLRLSCAASGFTFNHYGMGWVRQAPGKGLEWVSYISSSGSSTYYADSVKGRFTISRDNSKNTLYLQMNSLRAEDTAVYYCAKGWLGNFDYWGQGTLVTVSS
VL: DIQMTQSPSSLSASVGDRVTITCRASQGVRTSLAWYQQKPGKAPKLLIYGKNIRPSGVPSRFSGSGSGTDFTLTISSLQPEDFATYYCQQSYSFPLTFGQGTKVEIK
B13: TIGIT-471-001 (antibody, V domains shown)
VH: EVQLLESGGGLVQPGGSLRLSCAASGFTFSNYGVSWVRQAPGKGLEWVGYINPSRGYTYYADSVKGRFTISRDNSKNTLYLQMNSLRAEDTAVYYCARSYGGGFDYWGQGTLVTVSS
VL: B8 VL with Q50D, N51A, D52S, K53S, R54L, P55H, S56T, S93I
notes: Variable domains only
B14: TIGIT-471-038 (antibody, V domains shown)
VH: B13 VH
VL: DIQMTQSPSSLSASVGDRVTITCRASQTIERRLNWYQQKPGKAPKLLIYDASSLHTGVSSRFSGSGSGTYFTLTISSLQAEDFATYYCQQSYIIPPTFGQGTKVEIK
notes: Variable domains only
B15: TIGIT-471-019 (antibody, V domains shown)
VH: B13 VH with P41H, G49V, T69S
VL: B14 VL with S59P, Y70D, A80P
notes: Variable domains only
B16: TIGIT-471-048 (antibody, V domains shown)
VH: B13 VH
VL: B14 VL with R24G, S59P, F62I, Y70D, A80P, D82H
notes: Variable domains only
B17: TIGIT-SC157 (Fc fusion)
VHH: EVQLVESGGGLVQPGGSLRLSCAASGFTFSPSWMGWFRQAPGKEREWVASVLRGGYTWYADSVKGRFTISADNSKNTAYLQMNSLKPEDTAVYYCTTEGYDFWSGYYDYWGQGTLVTVSS
notes: VHH-Fc
B18: TIGIT-SC138 (Fc fusion)
VHH: EVQLVESGGGLVQPGGSLRLSCAASGFTLENNMMGWFRQAPGKGREFVAAISRSGTLKAYADSVKGRFTISADNSKNTAYLQMNSLKPEDTAVYYCARVRYYYDSSGYFFWFDLWGQGTLVTVSS
notes: VHH-Fc
B19: TIGIT-SC210 (Fc fusion)
VHH: EVQLVESGGGLVQPGGSLRLSCAASGFLFDSYWMVWFRQAPGKEREFVAAIWRSGTLKAYADSVKGRFTISADNSKNTAYLQMNSLKPEDTAVYYCARDHRAMVAPFDYWGQGTLVTVSS
notes: VHH-Fc
B20: TIGIT-SC196 (Fc fusion)
VHH: EVQLVESGGGLVQPGGSLRLSCAASGFAFSSDWMGWFRQAPGKEREWVASVLRGGYTWYADSVKGRFTISADNSKNTAYLQMNSLKPEDTAVYYCATEGLGYWGQGTLVTVSS
notes: VHH-Fc

What follows are binders tested against T1, TIGIT (assay: ELISA).
Design: unit not given here

Binder	ELISA
B1	8.8
B2	9.7
B3	12
B4	7.9
B5	7.2
B6	12.4
B7	10.2
B8	13.2
B9	8.8
B10	8
B11	10.7
B12	8

The binders below were run against T1, TIGIT (assay: SPR (Carterra)).

Binder	Kd	RU	koff	kon
B13	61.3 nM	175 RU	0.022 s⁻¹	359000 M⁻¹ s⁻¹
B14	55.4 nM	78 RU	0.0122 s⁻¹	221000 M⁻¹ s⁻¹
B15	164 nM	156 RU	0.0565 s⁻¹	344000 M⁻¹ s⁻¹
B16	51.4 nM	122 RU	0.0192 s⁻¹	373000 M⁻¹ s⁻¹

Biological target: T1, TIGIT
Assay: SPR (Carterra)
Remark: another data set of the same source

Binder	Kd	koff	kon
B1	605 nM	0.0406 s⁻¹	67100 M⁻¹ s⁻¹
B2	268 nM	0.000832 s⁻¹	3110 M⁻¹ s⁻¹
B3	819 nM	0.00117 s⁻¹	1430 M⁻¹ s⁻¹
B4	3040 nM	0.0622 s⁻¹	20400 M⁻¹ s⁻¹
B5	63.1 nM	0.0016 s⁻¹	25400 M⁻¹ s⁻¹
B6	3400 nM	0.105 s⁻¹	30800 M⁻¹ s⁻¹
B7	392 nM	0.0405 s⁻¹	103000 M⁻¹ s⁻¹
B8	472 nM	0.126 s⁻¹	266000 M⁻¹ s⁻¹
B9	105 nM	0.00125 s⁻¹	11900 M⁻¹ s⁻¹
B10	2230 nM	0.0681 s⁻¹	30500 M⁻¹ s⁻¹
B11	96.5 nM	0.0335 s⁻¹	347000 M⁻¹ s⁻¹
B12	66.1 nM	0.000643 s⁻¹	9740 M⁻¹ s⁻¹

These binders were tested against T2, recombinant human TIGIT (assay: SPR (Carterra), average).
Experimental: Binding affinities of VHH-Fc proteins to recombinant human TIGIT were measured by SPR using a Carterra instrument (Table 10A). […] Average values reported from measurements from 1-2 samples.

Binder	Kd	koff	kon
B17	302000 nM	0.0054 s⁻¹	
B18	7300 nM	0.363 s⁻¹	49700 M⁻¹ s⁻¹
B19	6330 nM	0.258 s⁻¹	40700 M⁻¹ s⁻¹
B20	112000 nM	0.00692 s⁻¹	143 M⁻¹ s⁻¹

What follows are binders tested against T3, human TIGIT-Fc (assay: CD155 competition ELISA, single point; also: test concentration or dose not given here).
Experimental: TIGIT/CD155 inhibition of VHH-Fcs were assessed using an ELISA assay (Table 10B). Briefly, human TIGIT-Fc was coated on a plate & then incubated with VHH-Fcs and human CD155-biotin. Bound CD155-biotin was detected using a streptavidin-HRP conjugate visualized with TMB. Strong inhibitors from the single point screen were titrated to determine EC50 (Table 10C).

Binder	OD (450 nm)
B17	0.414 OD
B18	0.393 OD
B19	0.516 OD
B20	0.374 OD

These binders were tested against T1, TIGIT (assay: TIGIT:CD155 blockade assay, competitor CD155).

Binder	IC50
B13	9.6 nM
B14	5.9 nM
B15	13.6 nM
B16	9.8 nM
